What all share (assay): ITC
In general terms: In ITC the heat of successive injections is recorded.

In test [1] the target is P9, SSB C-terminal 9-mer peptide (UniProt P0AGE0).
The target of test [2] is SSB tetramer-(dT)70 1:1 complex (fully wrapped (SSB)65-like) (UniProt P0AGE0).
Test [3] has as its target P15, SSB C-terminal 15-mer peptide (UniProt P0AGE0).
Test [4] addresses SSB (single-stranded DNA binding protein), full length (UniProt P0AGE0). The conditions noted are these: pH 7.0, 25 °C, 0.2 M NaCl, buffer C: 10 mM cacodylate.
Test [5] addresses SSB tetramer-(dT)70 1:1 complex (fully wrapped (SSB)65-like) (UniProt P0AGE0). The conditions noted are these: pH 8.1, 25 °C, 20 mM NaCl, buffer H: 10 mM Hepes.
[6] abbreviates: pH 7.0, 25 °C, 200 mM NaCl, buffer C: 10 mM cacodylate, pH 7.0.
Setting [7] is: pH 7.5, 25 °C, 20 mM NaCl, buffer T: 10 mM Tris, pH 7.5.
Setting [8] is: pH 7.0, 25 °C, 0.2 M NaCl, buffer C: 10 mM cacodylate.
Setting [9] is: pH 7.5, 25 °C, 0.2 M NaCl, buffer T: 10 mM Tris.
The mark [10] stands for this setting: pH 7.0, 25 °C, 20 mM NaCl, buffer C: 10 mM cacodylate, pH 7.0.
The mark [11] stands for this setting: pH 7.5, 25 °C, 20 mM NaCl, buffer T: 10 mM Tris.

Chain of P9, SSB C-terminal 9-mer peptide (P0AGE0 whole entry, looked up, tested part not stated): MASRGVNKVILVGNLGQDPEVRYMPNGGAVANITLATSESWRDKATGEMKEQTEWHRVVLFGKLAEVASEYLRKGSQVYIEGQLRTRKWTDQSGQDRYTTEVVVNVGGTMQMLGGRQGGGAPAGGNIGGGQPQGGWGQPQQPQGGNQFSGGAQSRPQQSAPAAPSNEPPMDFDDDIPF
Chain of SSB tetramer-(dT)70 1:1 complex (fully wrapped (SSB)65-like) (P0AGE0 whole entry, one chain of several): as the sequence (P0AGE0 whole entry, looked up, tested part not stated) above
Chain of SSB (single-stranded DNA binding protein), full length (P0AGE0 whole entry): as the sequence (P0AGE0 whole entry, looked up, tested part not stated) above

Take PriA helicase (primosomal protein N'): the K (observed association constant) in test [1] (setting [6]) stood at 180000 M⁻¹; in test [1] (setting [7]), 2e+06 M⁻¹; in test [3] (setting [10]), 2.7e+06 M⁻¹; in test [3] (setting [6]), 360000 M⁻¹; in test [3] (setting [7]) it was 1.6e+06 M⁻¹. The figures for the ΔH (observed) in test [1] (setting [7]), in test [3] (setting [10]) and in test [3] (setting [7]) were -6.7 kcal/mol, -20.7 kcal/mol and -7 kcal/mol, respectively. Moreover, the Kobs entry in test [2] (setting [8]) was “(3.7±0.5)×10^6 M^−1”; in test [2] (setting [9]), “(1.9±0.5)×10^6 M^−1”. Besides, the ΔHobs in test [2] (setting [8]) was -18.3 kcal/mol; in test [2] (setting [9]), -8.6 kcal/mol. This substance returned a protons absorbed on complex formation in test [3] (pH 7.0-7.5, 25 °C, 20 mM NaCl, buffer T: 10 mM Tris, pH 7.5) of 1 protons.

Turning to “χ (chi) subunit of DNA polymerase III holoenzyme (HolC)”, the K (observed association constant) was found to be 1.6e+06 M⁻¹ in test [1] (setting [10]), 800000 M⁻¹ in test [1] (setting [7]), 1.5e+06 M⁻¹ in test [3] (setting [10]) and 800000 M⁻¹ in test [3] (setting [7]). Further, the ΔH (observed) in test [1] (setting [10]) is -7.9 kcal/mol; in test [1] (setting [11]), -8.2 kcal/mol; in test [3] (setting [10]) it was -9.5 kcal/mol; in test [3] (setting [11]), -7.7 kcal/mol. The Kobs result is recorded as “(5.4±1.0)×10^5 M^−1” in test [2] (setting [8]); “(7.6±1.6)×10^6 M^−1” in test [2] (setting [10]); “(5.5±0.8)×10^6 M^−1” in test [2] (pH 8.1, 25 °C, 20 mM NaCl, buffer H: 10 mM Hepes); “(3.0±0.7)×10^5 M^−1” in test [4]; “(3.8±0.4)×10^6 M^−1” in test [5]. Moreover, the ΔHobs in test [2] (setting [10]) is -8.7 kcal/mol; in test [2] (pH 8.1, 25 °C, 20 mM NaCl, buffer H: 10 mM Hepes, pH 8.1), -8.9 kcal/mol.

These data come from article PMC2861366.
